US20060269538A1

Experiments:
[1] = molecular target: variant E (trypsin mutant of SEQ ID NO:5) (human); assay: cell-based or functional assay; conditions: scale: % of the serum concentration of anti-plasmin
[2] = molecular target: variant D (trypsin mutant of SEQ ID NO:5) (human); assay: cell-based or functional assay; conditions: scale: % of the serum concentration of anti-plasmin
variant D (trypsin mutant of SEQ ID NO:5) (human), sequence (chain, as listed by the source mutant limits assumed): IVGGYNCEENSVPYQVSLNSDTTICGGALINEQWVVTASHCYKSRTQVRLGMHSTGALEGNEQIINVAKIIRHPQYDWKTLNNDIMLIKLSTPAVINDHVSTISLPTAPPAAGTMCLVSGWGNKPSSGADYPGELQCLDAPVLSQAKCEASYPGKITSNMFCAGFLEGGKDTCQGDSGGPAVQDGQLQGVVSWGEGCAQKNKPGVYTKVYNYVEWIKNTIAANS

variant E (trypsin mutant of SEQ ID NO:5) (human), sequence (chain, as listed by the source mutant): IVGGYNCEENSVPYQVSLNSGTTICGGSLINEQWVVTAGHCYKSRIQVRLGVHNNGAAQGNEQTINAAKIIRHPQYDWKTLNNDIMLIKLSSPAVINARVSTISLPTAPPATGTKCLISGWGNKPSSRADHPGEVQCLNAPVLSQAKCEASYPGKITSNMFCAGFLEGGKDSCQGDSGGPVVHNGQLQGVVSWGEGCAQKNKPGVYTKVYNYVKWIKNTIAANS

IC50 (inhibitor concentration at 50% residual proteolytic activity; cleavage of fluorescently labelled TNF-alpha) [1]: 40
IC50 (inhibitor concentration at 50% residual proteolytic activity; cleavage of fluorescently labelled TNF-alpha) [2]: 5
Substance: antiplasmin (from UniProt P08697 40-491)
